The supplement of paper PMC5998384

Experiments:
HeLa Kyoto [1] = test: melting temperature (median over replicates), in situ; higher = more thermally stable
HeLa Kyoto [2] = test: solubility in G1/S (NP-40 vs SDS abundance) (log2 ratio); higher = more soluble; details: cell cycle stage: G1/S
HeLa Kyoto [3] = test: thermal stability score vs G1/S (z-score of summed log2 fold changes over temperatures); higher = more thermally stable than in G1/S
HeLa Kyoto [4] = test: solubility change mitosis vs G1/S (difference of NP-40 vs SDS log2 ratios) (log2 ratio difference); higher = more soluble in mitosis
[5] = cell cycle stage: early G1 (4.5 h after nocodazole release)
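Throughout, for melting temperature (median over replicates), in situ: HeLa Kyoto cells synchronized by double thymidine or nocodazole block, proteins quantified by TMT10plex mass spectrometry, three independent biological replicates.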
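Throughout, for solubility change mitosis vs G1/S (difference of NP-40 vs SDS log2 ratios): synchronized HeLa Kyoto cells (double thymidine block for G1/S, nocodazole release for mitosis), protein amounts in NP-40 versus SDS lysates quantified by mass spectrometry, three biological replicates.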
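Throughout, for solubility in G1/S (NP-40 vs SDS abundance): HeLa Kyoto cells arrested at G1/S by double thymidine block, proteins quantified by TMT10plex mass spectrometry in mild NP-40 versus SDS extracts, three biological replicates.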
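Throughout, for thermal stability score vs G1/S (z-score of summed log2 fold changes over temperatures): synchronized HeLa Kyoto cells, proteins quantified by TMT10plex mass spectrometry, three biological replicates, mitosis taken 0.5 h after nocodazole release, G1/S directly after double thymidine block.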

| Sequence | melting temperature (HeLa Kyoto [1]; cell cycle stage: G1/S) [°C] | melting temperature (HeLa Kyoto [1]; cell cycle stage: mitosis) [°C] | solubility in G1/S (log2) (HeLa Kyoto [2]) | thermal stability score (HeLa Kyoto [3]; [5]) | thermal stability score (HeLa Kyoto [3]; cell cycle stage: mitosis) | solubility change mitosis (log2) (HeLa Kyoto [4]) |
| --- | --- | --- | --- | --- | --- | --- |
| MRLALLWALGLLGAGSPLPSWPLPNIGGTEEQQAESEKAPREPLEPQVLQDDLPISLKKVLQTSLPEPLRIKLELDGDSHILELLQNRELVPGRPTLVWYQPDGTRVVSEGHTLENCCYQGRVRGYAGSWVSICTCSGLRGLVVLTPERSYTLEQGPGDLQGPPIISRIQDLHLPGHTCALSWRESVHTQKPPEHPLGQRHIRRRRDVVTETKTVELVIVADHSEAQKYRDFQHLLNRTLEVALLLDTFFRPLNVRVALVGLEAWTQRDLVEISPNPAVTLENFLHWRRAHLLPRLPHDSAQLVTGTSFSGPTVGMAIQNSICSPDFSGGVNMDHSTSILGVASSIAHELGHSLGLDHDLPGNSCPCPGPAPAKTCIMEASTDFLPGLNFSNCSRRALEKALLDGMGSCLFERLPSLPPMAAFCGNMFVEPGEQCDCGFLDDCVDPCCDSLTCQLRPGAQCASDGPCCQNCQLRPSGWQCRPTRGDCDLPEFCPGDSSQCPPDVSLGDGEPCAGGQAVCMHGRCASYAQQCQSLWGPGAQPAAPLCLQTANTRGNAFGSCGRNPSGSYVSCTPRDAICGQLQCQTGRTQPLLGSIRDLLWETIDVNGTELNCSWVHLDLGSDVAQPLLTLPGTACGPGLVCIDHRCQRVDLLGAQECRSKCHGHGVCDSNRHCYCEEGWAPPDCTTQLKATSSLTTGLLLSLLVLLVLVMLGASYWYRARLHQRLCQLKGPTCQYRAAQSGPSERPGPPQRALLARGTKQASALSFPAPPSRPLPPDPVSKRLQAELADRPNPPTRPLPADPVVRSPKSQGPAKPPPPRKPLPADPQGRCPSGDLPGPGAGIPPLVVPSRPAPPPPTVSSLYL [ADAM15] | 54.2 | 55.4 | 0.293 | 0.908 | 2.18 | -0.0652 |
| MQSTSNHLWLLSDILGQGATANVFRGRHKKTGDLFAIKVFNNISFLRPVDVQMREFEVLKKLNHKNIVKLFAIEEETTTRHKVLIMEFCPCGSLYTVLEEPSNAYGLPESEFLIVLRDVVGGMNHLRENGIVHRDIKPGNIMRVIGEDGQSVYKLTDFGAARELEDDEQFVSLYGTEEYLHPDMYERAVLRKDHQKKYGATVDLWSIGVTFYHAATGSLPFRPFEGPRRNKEVMYKIITGKPSGAISGVQKAENGPIDWSGDMPVSCSLSRGLQVLLTPVLANILEADQEKCWGFDQFFAETSDILHRMVIHVFSLQQMTAHKIYIHSYNTATIFHELVYKQTKIISSNQELIYEGRRLVLEPGRLAQHFPKTTEENPIFVVSREPLNTIGLIYEKISLPKVHPRYDLDGDASMAKAITGVVCYACRIASTLLLYQELMRKGIRWLIELIKDDYNETVHKKTEVVITLDFCIRNIEKTVKVYEKLMKINLEAAELGEISDIHTKLLRLSSSQGTIETSLQDIDSRLSPGGSLADAWAHQEGTHPKDRNVEKLQVLLNCMTEIYYQFKKDKAERRLAYNEEQIHKFDKQKLYYHATKAMTHFTDECVKKYEAFLNKSEEWIRKMLHLRKQLLSLTNQCFDIEEEVSKYQEYTNELQETLPQKMFTASSGIKHTMTPIYPSSNTLVEMTLGMKKLKEEMEGVVKELAENNHILERFGSLTMDGGLRNVDCL [TBK1] | 48.6 | 48.6 | -0.00961 | 0.969 | 1.43 | -0.105 |
| MASPVAAQAGKLLRALALRPRFLAAGSQAVQLTSRRWLNLQEYQSKKLMSDNGVRVQRFFVADTANEALEAAKRLNAKEIVLKAQILAGGRGKGVFNSGLKGGVHLTKDPNVVGQLAKQMIGYNLATKQTPKEGVKVNKVMVAEALDISRETYLAILMDRSCNGPVLVGSPQGGVDIEEVAASNPELIFKEQIDIFEGIKDSQAQRMAENLGFVGPLKSQAADQITKLYNLFLKIDATQVEVNPFGETPEGQVVCFDAKINFDDNAEFRQKDIFAMDDKSENEPIENEAAKYDLKYIGLDGNIACFVNGAGLAMATCDIIFLNGGKPANFLDLGGGVKEAQVYQAFKLLTADPKVEAILVNIFGGIVNCAIIANGITKACRELELKVPLVVRLEGTNVQEAQKILNNSGLPITSAIDLEDAAKKAVASVAKK [SUCLG2] | 51.3 | 51.2 | 0.383 | 0.0772 | 0.0477 | -0.104 |
| MREIVHIQAGQCGNQIGTKFWEVISDEHGIDPAGGYVGDSALQLERINVYYNESSSQKYVPRAALVDLEPGTMDSVRSGPFGQLFRPDNFIFGQTGAGNNWAKGHYTEGAELVDAVLDVVRKECEHCDCLQGFQLTHSLGGGTGSGMGTLLISKIREEFPDRIMNTFSVMPSPKVSDTVVEPYNATLSVHQLVENTDETYCIDNEALYDICFRTLKLTTPTYGDLNHLVSATMSGVTTSLRFPGQLNADLRKLAVNMVPFPRLHFFMPGFAPLTSRGSQQYRALTVPELTQQMFDARNMMAACDPRHGRYLTVATVFRGPMSMKEVDEQMLAIQSKNSSYFVEWIPNNVKVAVCDIPPRGLKMASTFIGNSTAIQELFKRISEQFSAMFRRKAFLHWFTGEGMDEMEFTEAESNMNDLVSEYQQYQDATANDGEEAFEDEEEEIDG [TUBB6] | 54.8 | 53.8 | 0.0985 | -0.862 | -2.31 | -0.124 |
| MGLYAAAAGVLAGVESRQGSIKGLVYSSNFQNVKQLYALVCETQRYSAVLDAVIASAGLLRAEKKLRPHLAKVLVYELLLGKGFRGGGGRWKALLGRHQARLKAELARLKVHRGVSRNEDLLEVGSRPGPASQLPRFVRVNTLKTCSDDVVDYFKRQGFSYQGRASSLDDLRALKGKHFLLDPLMPELLVFPAQTDLHEHPLYRAGHLILQDRASCLPAMLLDPPPGSHVIDACAAPGNKTSHLAALLKNQGKIFAFDLDAKRLASMATLLARAGVSCCELAEEDFLAVSPSDPRYHEVHYILLDPSCSGSGMPSRQLEEPGAGTPSPVRLHALAGFQQRALCHALTFPSLQRLVYSTCSLCQEENEDVVRDALQQNPGAFRLAPALPAWPHRGLSTFPGAEHCLRASPETTLSSGFFVAVIERVEVPR [NSUN5] | 48.7 | 50.2 | -0.194 | 0.348 | -0.0976 | 0.282 |
| MAASMFYGRLVAVATLRNHRPRTAQRAAAQVLGSSGLFNNHGLQVQQQQQRNLSLHEYMSMELLQEAGVSVPKGYVAKSPDEAYAIAKKLGSKDVVIKAQVLAGGRGKGTFESGLKGGVKIVFSPEEAKAVSSQMIGKKLFTKQTGEKGRICNQVLVCERKYPRREYYFAITMERSFQGPVLIGSSHGGVNIEDVAAESPEAIIKEPIDIEEGIKKEQALQLAQKMGFPPNIVESAAENMVKLYSLFLKYDATMIEINPMVEDSDGAVLCMDAKINFDSNSAYRQKKIFDLQDWTQEDERDKDAAKANLNYIGLDGNIGCLVNGAGLAMATMDIIKLHGGTPANFLDVGGGATVHQVTEAFKLITSDKKVLAILVNIFGGIMRCDVIAQGIVMAVKDLEIKIPVVVRLQGTRVDDAKALIADSGLKILACDDLDEAARMVVKLSEIVTLAKQAHVDVKFQLPI [SUCLA2] | 49.7 | 49.8 | 0.0965 | -0.13 | 1.1 | -0.0729 |
| MSFICGLQSAARNHVFFRFNSLSNWRKCNTLASTSRGCHQVQVNHIVNKYQGLGVNQCDRWSFLPGNFHFYSTFNNKRTGGLSSTKSKEIWRITSKCTVWNDAFSRQLLIKEVTAVPSLSVLHPLSPASIRAIRNFHTSPRFQAAPVPLLLMILKPVQKLFAIIVGRGIRKWWQALPPNKKEVVKENIRKNKWKLFLGLSSFGLLFVVFYFTHLEVSPITGRSKLLLLGKEQFRLLSELEYEAWMEEFKNDMLTEKDARYLAVKEVLCHLIECNKDVPGISQINWVIHVVDSPIINAFVLPNGQMFVFTGFLNSVTDIHQLSFLLGHEIAHAVLGHAAEKAGMVHLLDFLGMIFLTMIWAICPRDSLALLCQWIQSKLQEYMFNRPYSRKLEAEADKIGLLLAAKACADIRASSVFWQQMEFVDSLHGQPKMPEWLSTHPSHGNRVEYLDRLIPQALKIREMCNCPPLSNPDPRLLFKLSTKHFLEESEKEDLNITKKQKMDTLPIQKQEQIPLTYIVEKRTGS [OMA1] | 54.1 | 54.7 | -0.436 | -1.79 | -1.54 | -0.0922 |
| MGDMTNSDFYSKNQRNESSHGGEFGCTMEELRSLMELRGTEAVVKIKETYGDTEAICRRLKTSPVEGLPGTAPDLEKRKQIFGQNFIPPKKPKTFLQLVWEALQDVTLIILEIAAIISLGLSFYHPPGEGNEGCATAQGGAEDEGEAEAGWIEGAAILLSVICVVLVTAFNDWSKEKQFRGLQSRIEQEQKFTVVRAGQVVQIPVAEIVVGDIAQVKYGDLLPADGLFIQGNDLKIDESSLTGESDQVRKSVDKDPMLLSGTHVMEGSGRMLVTAVGVNSQTGIIFTLLGAGGEEEEKKDKKGVKKGDGLQLPAADGAAASNAADSANASLVNGKMQDGNVDASQSKAKQQDGAAAMEMQPLKSAEGGDADDRKKASMHKKEKSVLQGKLTKLAVQIGKAGLVMSAITVIILVLYFTVDTFVVNKKPWLPECTPVYVQYFVKFFIIGVTVLVVAVPEGLPLAVTISLAYSVKKMMKDNNLVRHLDACETMGNATAICSDKTGTLTTNRMTVVQAYVGDVHYKEIPDPSSINTKTMELLINAIAINSAYTTKILPPEKEGALPRQVGNKTECGLLGFVLDLKQDYEPVRSQMPEEKLYKVYTFNSVRKSMSTVIKLPDESFRMYSKGASEIVLKKCCKILNGAGEPRVFRPRDRDEMVKKVIEPMACDGLRTICVAYRDFPSSPEPDWDNENDILNELTCICVVGIEDPVRPEVPEAIRKCQRAGITVRMVTGDNINTARAIAIKCGIIHPGEDFLCLEGKEFNRRIRNEKGEIEQERIDKIWPKLRVLARSSPTDKHTLVKGIIDSTHTEQRQVVAVTGDGTNDGPALKKADVGFAMGIAGTDVAKEASDIILTDDNFSSIVKAVMWGRNVYDSISKFLQFQLTVNVVAVIVAFTGACITQDSPLKAVQMLWVNLIMDTFASLALATEPPTETLLLRKPYGRNKPLISRTMMKNILGHAVYQLALIFTLLFVGEKMFQIDSGRNAPLHSPPSEHYTIIFNTFVMMQLFNEINARKIHGERNVFDGIFRNPIFCTIVLGTFAIQIVIVQFGGKPFSCSPLQLDQWMWCIFIGLGELVWGQVIATIPTSRLKFLKEAGRLTQKEEIPEEELNEDVEEIDHAERELRRGQILWFRGLNRIQTQIRVVKAFRSSLYEGLEKPESRTSIHNFMAHPEFRIEDSQPHIPLIDDTDLEEDAALKQNSSPPSSLNKNNSAIDSGINLTTDTSKSATSSSPGSPIHSLETSL [ATP2B2] | 54.2 | 53.6 | -0.538 | -1.72 | -2.96 | -0.123 |
| MAGSEQQRPRRRDDGDSDAAAAAAAPLQDAELALAGINMLLNNGFRESDQLFKQYRNHSPLMSFGASFVSFLNAMMTFEEEKMQLACDDLKTTEKLCESEEAGVIETIKNKIKKNVDVRKSAPSMVDRLQRQIIIADCQVYLAVLSFVKQELSAYIKGGWILRKAWKIYNKCYLDINALQELYQKKLTEESLTSDAANDNHIVAEGVSEESLNRLKGAVSFGYGLFHLCISMVPPNLLKIINLLGFPGDRLQGLSSLMYASESKDMKAPLATLALLWYHTVVRPFFALDGSDNKAGLDEAKEILLKKEAAYPNSSLFMFFKGRIQRLECQINSALTSFHTALELAVDQREIQHVCLYEIGWCSMIELNFKDAFDSFERLKNESRWSQCYYAYLTAVCQGATGDVDGAQIVFKEVQKLFKRKNNQIEQFSVKKAERFRKQTPTKALCVLASIEVLYLWKALPNCSFPNLQRMSQACHEVDDSSVVGLKYLLLGAIHKCLGNSEDAVQYFQRAVKDELCRQNNLYVQPYACYELGCLLLDKPETVGRGRALLLQAKEDFSGYDFENRLHVRIHAALASLRELVPQ [TTC39C] | 53.6 | 52.6 | -0.0737 | -1.01 | -2.55 | -0.00412 |
